Measured values as given in patent US11471462B2, “Compositions and methods for detecting and treating diabetes” (THE BROAD INSTITUTE, INC., priority 2016, dated 2022).

system: SLC16A11; test: SLC16A11 protein-protein interaction study (immunoprecipitation, quantitative mass spectrometry); set-up: species or system human; conditions: putative SLC16A11^REF interaction partners; immunoprecipitation from HEK293T cells vs empty vector control; Blandt-Altman
Text: Alternatively, these variants may result in reduced transport because they disrupt protein-protein interactions responsible for correct SLC16A11 function. To explore this possibility, SLC16A11 was immunoprecipitated from HEK293T cells expressing either REF or T2D risk SLC16A11-V5 or empty vector control and quantitative mass spectrometry was used to define the SLC16A11 interactome.
Another mechanism through which the variants could affect activity is through disruption of protein-protein interactions. To explore this possibility, quantitative mass spectrometry-based protein-protein interaction studies were performed to define the SLC16A11 interactome and evaluate if the T2D risk coding variants alter any interactions.
Beads were then washed once with lysis buffer and three times with wash buffer. After the last wash, residual wash buffer was removed, 10 μL fresh wash buffer was added, and beads were stored at −80° C. until analysis by the Proteomics Platform at the Broad Institute, as detailed in the “Proteomics Methods for SLC16A11 Protein Interaction Studies” below.
The beads from immunopurification were washed once with IP lysis buffer, then three times with PBS, the three different lysates of each replicate were resuspended in 90 uL digestion buffer (2M Urea, 50 mM Tris HCl), 2 ug of sequencing grade trypsin added, 1 hour shaking at 700 rpm. The supernatant was removed and placed in a fresh tube. The beads were then washed twice with 50 uL digestion buffer and combined with the supernatant. The combined supernatants were reduced (2 uL 500 mM DTT, 30 minutes, RT), alkylated (4 uL 500 mM IAA, 45 minutes, dark) and a longer overnight digestion performed: 2 ug (4 uL) trypsin, shake o/n, The samples were then quenched with 20 uL 10% FA and desalted on 10 mg SepPak columns.
Desalted peptides were labelled with iTRAQ reagents according to the manufacturer's instructions (AB Sciex, Foster City, Calif.). Peptides were dissolved in 30 μl of 0.5 M TEAB pH 8.5 solution and labeling reagent was added in 70 ul of ethanol. After 1 h incubation the reaction was stopped with 50 mM Tris/HCl pH 7.5. Differentially labelled peptides were mixed and subsequently desalted on 10 mg SepPak columns.
Reconstituted peptides were separated on an online nanoflow EASY-nLC 1000 UHPLC system (Thermo Fisher Scientific) and analyzed on a benchtop Orbitrap Q Exactive Plus mass spectrometer (Thermo Fisher Scientific). The peptide samples were injected onto a capillary column (Picofrit with 10 μm tip opening/75 μm diameter, New Objective, PF360-75-10-N-5) packed in-house with 20 cm C18 silica material (1.9 μm ReproSil-Pur C18-AQ medium, Dr. Maisch GmbH, r119.aq). The UHPLC setup was connected with a custom-fit microadapting tee (360 μm, IDEX Health & Science, UH-753), and capillary columns were heated to 50° C. in column heater sleeves (Phoenix-ST) to reduce backpressure during UHPLC separation. Injected peptides were separated at a flow rate of 200 nL/min with a linear 80 min gradient from 100% solvent A (3% acetonitrile, 0.1% formic acid) to 30% solvent B (90% acetonitrile, 0.1% formic acid), followed by a linear 6 min gradient from 30% solvent B to 90% solvent B. Each sample was run for 120 min, including sample loading and column equilibration times. The Q Exactive instrument was operated in the data-dependent mode acquiring HCD MS/MS scans (R=17,500) after each MS1 scan (R=70,000) on the 12 top most abundant ions using an MS1 ion target of 3×10^6 ions and an MS2 target of 5×10^4 ions. The maximum ion time utilized for the MS/MS scans was 120 ms; the HCD-normalized collision energy was set to 27; the dynamic exclusion time was set to 20 s, and the peptide match and isotope exclusion functions were enabled.
All mass spectra were processed using the Spectrum Mill software package v6.0 pre-release (Agilent Technologies) which includes modules developed by us for iTRAQ-based quantification. […]

Row | Molecule | BA log fold change
1 | PSMA3 (protein) SSIGTGYDLSASTFSPDGRVFQVEYAMKAVENSSTAIGIRCKDGVVFGVEKLVLSKLYEEGSNKRLFNVDRHVGMAVAGLLADARSLADIAREEASNFRSNFGYNIPLKHLADRVAMYVHAYTLYSAVRPFGCSFMLGSYSVNDGAQLYMIDPSGVSYGYWGCAIGKARQAAKTEIEKLQMKEMTCRDIVKEVAKIIYIVHDEVKDKAFELELSWVGELTNGRHEIVPKDIREEAEKYAKESLKEEDESDDDNM | 1.09
2 | MAGED1 (protein) MAQKMDCGAGLLGFQNPDACRAVCHPLPQPPASTLPLSAFPTLCDPPYSQLRDPPAVLSCYCTPLGASPAPAEASVEDSALLMQTLMEAIQISEAPPTNQATAAASPQSSQPPTANEMADIQVSAAAARPKSAFKVQNATTKGPNGVYDFSQAHNAKDVPNTQPKAAFKSQNATPKGPNAAYDFSQAATTGELAANKSEMAFKAQNATTKVGPNATYNFSQSLNANDLANSRPKTPFKAWNDTTKAPTADTQTQNVNQAKMATSQADIETDPGISEPDGATAQTSADGSQAQNLESRTIIRGKRTRKINNLNVEENSSGDQRRAPLAAGTWRSAPVPVTTQNPPGAPPNVLWQTPLAWQNPSGWQNQTARQTPPARQSPPARQTPPAWQNPVAWQNPVIWPNPVIWQNPVIWPNPIVWPGPVVWPNPLAWQNPPGWQTPPGWQTPPGWQGPPDWQGPPDWPLPPDWPLPPDWPLPTDWPLPPDWIPADWPIPPDWQNLRPSPNLRPSPNSRASQNPGAAQPRDVALLQERANKLVKYLMLKDYTKVPIKRSEMLRDIIREYTDVYPEIIERACFVLEKKFGIQLKEIDKEEHLYILISTPESLAGILGTTKDTPKLGLLLVILGVIFMNGNRASEAVLWEALRKMGLRPGVRHPLLGDLRKLLTYEFVKQKYLDYRRVPNSNPPEYEFLWGLRSYHETSKMKVLRFIAEVQKRDPRDWTAQFMEAADEALDALDAAAAEAEARAEARTRMGIGDEAVSGPWSWDDIEFELLTWDEEGDFGDPWSRIPFTFWARYHQNARSRFPQTFAGPIIGPGGTASANFAANFGAIGFFWVE | 1.09
3 | TECR (protein) MKHYEVEILDAKTREKLCFLDKVEPHATIAEIKNLFTKTHPQWYPARQSLRLDPKGKSLKDEDVLQKLPVGTTATLYFRDLGAQISWVTVFLTEYAGPLFIYLLFYFRVPFIYGHKYDFTSSRHTVVHLACICHSFHYIKRLLETLFVHRFSHGTMPLRNIFKNCTYYWGFAAWMAYYINHPLYTPPTYGAQQVKLALAIFVICQLGNFSIHMALRDLRPAGSKTRKIPYPTKNPFTWLFLLVSCPNYTYEVGSWIGFAIMTQCLPVALFSLVGFTQMTIWAKGKHRSYLKEFRDYPPLRMPIIPFLL | 1.10
4 | PHGDH (protein) AFANLRKVLISDSLDPCCRKILQDGGLQVVEKQNLSKEELIAELQDCEGLIVRSATKVTADVINAAEKLQVVGRAGTGVDNVDLEAATRKGILVMNTPNGNSLSAAELTCGMIMCLARQIPQATASMKDGKWERKKFMGTELNGKTLGILGLGRIGREVATRMQSFGMKTIGYDPIISPEVSASFGVQQLPLEEIWPLCDFITVHTPLLPSTTGLLNDNTFAQCKKGVRVVNCARGGIVDEGALLRALQSGQCAGAALDVFTEEPPRDRALVDHENVISCPHLGASTKEAQSRCGEEIAVQFVDMVKGKSLTGVVNAQALTSAFSPHTKPWIGLAEALGTLMRAWAGSPKGTIQVITQGTSLKNAGNCLSPAVIVGLLKEASKQADVNLVNAKLLVKEAGLNVTTSHSPAAPGEQGFGECLLAVALAGAPYQAVGLVQGTTPVLQGLNGAVFRPEVPLRRDLPLLLFRTQTSDPAMLPTMIGLLAEAGVRLLSYQTSLVSDGETWHVMGISSLLPSLEAWKQHVTEAFQFHF | 1.11
5 | VDAC2 (protein) MSWCNELRLPALKQHSIGRGLESHITMCIPPSYADLGKAARDIFNKGFGFGLVKLDVKTKSCSGVEFSTSGSSNTDTGKVTGTLETKYKWCEYGLTFTEKWNTDNTLGTEIAIEDQICQGLKLTFDTTFSPNTGKKSGKIKSSYKRECINLGCDVDFDFAGPAIHGSAVFGYEGWLAGYQMTFDSAKSKLTRNNFAVGYRTGDFQLHTNVNDGTEFGGSIYQKVCEDLDTSVNLAWTSGTNCTRFGIAAKYQLDPTASISAKVNNSSLIGVGYTQTLRPGVKLTLSALVDGKSINAGGHKVGLALELEA | 1.14
6 | AUP1 (protein) MELPSGPGPERLFDSHRLPGDCFLLLVLLLYAPVGFCLLVLRLFLGIHVFLVSCALPDSVLRRFVVRTMCAVLGLVARQEDSGLRDHSVRVLISNHVTPFDHNIVNLLTTCSTPLLNSPPSFVCWSRGFMEMNGRGELVESLKRFCASTRLPPTPLLLFPEEEATNGREGLLRFSSWPFSIQDVVQPLTLQVQRPLVSVTVSDASWVSELLWSLFVPFTVYQVRWLRPVHRQLGEANEEFALRVQQLVAKELGQTGTRLTPADKAEHMKRQRHPRLRPQSAQSSFPPSPGPSPDVQLATLAQRVKEVLPHVPLGVIQRDLAKTGCVDLTITNLLEGAVAFMPEDITKGTQSLPTASASKFPSSGPVTPQPTALTFAKSSWARQESLQERKQALYEYARRRFTERRAQEAD | 1.10
7 | XPO5 (protein) AMDQVNALCEQLVKAVTVMMDPNSTQRYRLEALKFCEEFKEKCPICVPCGLRLAEKTQVAIVRHFGLQILEHVVKFRWNGMSRLEKVYLKNSVMELIANGTLNILEEENHIKDALSRIVVEMIKREWPQHWPDMLIELDTLSKQGETQTELVMFILLRLAEDVVTFQTLPPQRRRDIQQTLTQNMERIFSFLLNTLQENVNKYQQVKTDTSQESKAQANCRVGVAALNTLAGYIDWVSMSHITAENCKLLEILCLLLNEQELQLGAAECLLIAVSRKGKLEDRKPLMVLFGDVAMHYILSAAQTADGGGLVEKHYVFLKRLCQVLCALGNQLCALLGADSDVETPSNFGKYLESFLAFTTHPSQFLRSSTQMTWGALFRHEILSRDPLLLAIIPKYLRASMTNLVKMGFPSKTDSPSCEYSRFDFDSDEDFNAFFNSSRAQQGEVMRLACRLDPKTSFQMAGEWLKYQLSTFLDAGSVNSCSAVGTGEGSLCSVFSPSFVQWEAMTLFLESVITQMFRTLNREEIPVNDGIELLQMVLNFDTKDPLILSCVLTNVSALFPFVTYRPEFLPQVFSKLFSSVTFETVEESKAPRTRAVRNVRRHACSSIIKMCRDYPQLVLPNFDMLYNHVKQLLSNELLLTQMEKCALMEALVLISNQFKNYERQKVFLEELMAPVASIWLSQDMHRVLSDVDAFIAYVGTDQKSCDPGLEDPCGLNRARMSFCVYSILGVVKRTCWPTDLEEAKAGGFVVGYTSSGNPIFRNPCTEQILKLLDNLLALIRTHNTLYAPEMLAKMAEPFTKALDMLDAEKSAILGLPQPLLELNDSPVFKTVLERMQRFFSTLYENCFHILGKAGPSMQQDFYTVEDLATQLLSSAFVNLNNIPDYRLRPMLRVFVKPLVLFCPPEHYEALVSPILGPLFTYLHMRLSQKWQVINQRSLLCGEDEAADENPESQEMLEEQLVRMLTREVMDLITVCCVSKKGADHSSAPPADGDDEEMMATEVTPSAMAELTDLGKCLMKHEDVCTALLITAFNSLAWKDTLSCQRTTSQLCWPLLKQVLSGTLLADAVTWLFTSVLKGLQMHGQHDGCMASLVHLAFQIYEALRPRYLEIRAVMEQIPEIQKDSLDQFDCKLLNPSLQKVADKRRKDQFKRLIAGCIGKPLGEQFRKEVHIKNLPSLFKKTKPMLETEVLDNDGGGLATIFEP | 1.14
8 | ADCK4 (protein) MWLKVGGLLRGTGGQLGQTVGWPCGALGPGPHRWGPCGGSWAQKFYQDGPGRGLGEEDIRRAREARPRKTPRPQLSDRSRERKVPASRISRLANFGGLAVGLGLGVLAEMAKKSMPGGRLQSEGGSGLDSSPFLSEANAERIVQTLCTVRGAALKVGQMLSIQDNSFISPQLQHIFERVRQSADFMPRWQMLRVLEEELGRDWQAKVASLEEVPFAAASIGQVHQGLLRDGTEVAVKIQYPGIAQSIQSDVQNLLAVLKMSAALPAGLFAEQSLQALQQELAWECDYRREAACAQNFRQLLANDPFFRVPAVVKELCTTRVLGMELAGGVPLDQCQGLSQDLRNQICFQLLTLCLRELFEFRFMQTDPNWANFLYDASSHQVTLLDFGASREFGTEFTDHYIEVVKAAADGDRDCVLQKSRDLKFLTGFETKAFSDAHVEAVMILGEPFATQGPYDFGSGETARRIQDLIPVLLRHRLCPPPEETYALHRKLAGAFLACAHLRAHIACRDLFQDTYHRYWASRQPDAATAGSLPTKGDSWVDPS | 1.11
